Results from patent US10413588B2, “Probiotic function of human intelectin” (Wisconsin Alumni Research Foundation, priority 2015, dated 2019).
Values joined by “and” are separate entries in the source; they are usually repeats but may differ in a detail not shown here. Equal values may be shown once.

B1: hIntL-2: human intelectin-2, accession no. Q8WWU7, highly homologous to hIntL-1 (protein, listed as Homo sapiens)
chain: MLSMLRTMTRLCFLLFFSVATSGCSAAAASSLEMLSREFETCAFSFSSLPRSCKEIKERCHSAGDGLYFLRTKNGVVYQTFCDMTSGGGGWTLVASVHENDMRGKCTVGDRWSSQQGNKADYPEGDGNWANYNTFGSAEAATSDDYKNPGYYDIQAKDLGIWHVPNKSPMQHWRNSALLRYRTNTGFLQRLGHNLFGIYQKYPVKYRSGKCWNDNGPAIPVVYDFGDAKKTASYYSPYGQREFVAGFVQFRVFNNERAANALCAGIKVTGCNTEHHCIGGGGFFPQGKPRQCGDFSAFDWDGYGTHVKSSCSREITEAAVLLFYR
B2: Strep-mIntL-1: purified Strep-tagged mouse intelectin-1 (protein, UniProt O88310 19-298, looked up)
Intelectin-1a: AAEENLDTNRWGNSFFSSLPRSCKEIKQEHTKAQDGLYFLRTKNGVIYQTFCDMTTAGGGWTLVASVHENNMRGKCTVGDRWSSQQGNRADYPEGDGNWANYNTFGSAEAATSDDYKNPGYFDIQAENLGIWHVPNKSPLHNWRKSSLLRYRTFTGFLQHLGHNLFGLYKKYPVKYGEGKCWTDNGPALPVVYDFGDARKTASYYSPSGQREFTAGYVQFRVFNNERAASALCAGVRVTGCNTEHHCIGGGGFFPEGNPVQCGDFASFDWDGYGTHNGYS
modifications: Strep-tag

Experiments:
[1] = system: infant male fecal microbiome; assay: Flow cytometry binding to infant fecal microbiome; parameters: species or system human; settings: fecal sample, 15 μg/mL intelectin + 10 mM CaCl2
Description: Human fecal samples provide a non-invasive proxy of the intestinal microbiome of a patient. The inventors have isolated the intestinal microbiome from human fecal samples and analyzed it for hIntL-1 binding. The isolated microbiome was fixed using an aqueous solution of 1% formaldehyde. Cells were stained as described elsewhere, using either a solution including calcium ions (100 mM) or one containing the calcium ion chelator EDTA. Microbes were exposed to 20 mM HEPES (pH 7.2), 150 mM NaCl, 10 mM CaCl2, 15 μg/mL Strep-tagged-hIntL-1, 0.1% bovine serum albumin (BSA), 0.05% tween-20, 2 μg/mL StrepMAB Classic conjugated to Oyster 645 (IBA Lifesciences, cat. no.: 2-1555-050). […] Cells are analyzed consecutively on a BD LSRII flow cytometer using identical instrument setting. […]
Humans have two intelectins: hIntL-1 and human intelectin-2 (hIntL-2). […] To compare hIntL-1 and hIntL02, the inventors isolated the intestinal mirobiome from human feces and analyzed it for hIntL-2 binding. […] The samples were processed and analyzed as described above. Cells were analyzed consecutively on a BD LSRII flow cytometer using identical instrument setting. […]

[2] = Mouse intelectin-1 SPR on immobilized carbohydrates; assay type: binding; settings: referenced to biotin channel
Text: FIG. 23. Mouse intelectin-1 binding to immobilized carbohydrates. Purified Strep-mIntL-1 binding to immobilized carbohydrates monitored using SPR. […] Data are referenced to the biotin channel.

Molecule	fraction of cells of the infant microbiome bound by the intelectin [1]	carbohydrate binding on addition of EDTA [2]
B1	~32% and 32.2%	–
B2	–	prevents carbohydrate binding
